Measured values published in the DeepSol protein solubility set.

Assay: soluble on expression in E. coli; label from the status in PepcDB or PDB records

Row | Sequence | soluble on expression in E. coli
1 | APMKLYGAVMSWNLTRCATALEEAGSDYEIVPINFATAEHKSPEHLVRNPFGQVPALQDGDLYLFESRAICKYAARKNKPELLREGNLEEAAMVDVWIEVEANQYTAALNPILFQVLISPMLGGTTDQKVVDENLEKLKKVLEVYEARLTKCKYLAGDFLSLADLNHVSVTLCLFATPYASVLDAYPHVKAWWSGLMERPSVQKVAALMKPSA | soluble
2 | MQNLRTDVLIIGGGEAGLVAGCRALTMGQKVILVEKNGYLGGATILNGSNVVGTGSDVAAQIFDNNHDTPEMLAQDVARESLETNYPALTDLMVHNIGPAIDFISKFADLHYQKAQTQTPEHSINRQIELPSASSYEFIQKVSKAFAAAGGQIMLDTRVEKLMLDNDKKLRGVIAAQKDQTVNIKARSVVLAAGGHGANQKMRGTESEGIDYYGPMTSTGDAYQFNGDLDLQTHDLGWYKLYPHGVEVEPGVAKLTTYASKQATDMGAIYVNSKGDRIVNESNVYTTFRNAILKQADKVAYLVMDERTWKKVYDLLILHDFTPEEIKSFFENKGKRPVFVKGSLESAAEQAGIVVDELVQTVKNYQGYVQDGHDHDFGRDPKYLHQFEGETFYIIEQRDRFATTLGGYSVDADNLQLVTTKNAPVANYFGAGEIIGGANGHDSMPSMMNTWGISSGYVAGAAASENAQRQATAGAAALEHHHHHH | soluble
3 | MTFEMLYSKIHRATITDANLNYIG | soluble
4 | MNKIKILSITLEKRIISKNENDHSHQVIGQETEMTSKLEIRHKQRQDEIINAARRCFRRCGFHAASMSQIASEAQLSVGQIYRYFANKDAIIEEMVRRIIDFRIAQMDIDARTDHFPEVLALRKSLNEDDDALMLEVAAEATRNPRVMAMLEEADARMFANGCAHMKRMHPHLSDEHIRCCVEVFATMMEGTVYRRLTPQKSDPQHLQEIYQDIVSMLINK | not soluble
5 | MGSDKIHHHHHHMRYTLRQLEVFVAIAQHESVSLAARRLAMSQSATSTALAELERQFDCQLLDRIGKRLKLNALGFQLLPKAVALLDRGEEIEELLKGQRGIGSLDVGATLTIGNYLATLLISDFMRRHPGSRVRLHVRNTASIVDRVTHHDLDLGLIEGDCQHDDIVMQPWVEDELTVFCSPRHPLANAGEADLEALMREDWIMREEGSGTRRTLDQAMRHRRGRLNVLLELEHTEAIKRAVESGLGIGCVSHLALRDAFRRGSLVPIATPELDLTRQFTFIWHRHKYLTTAMREFLRLCREMTAGVQRSDEIDLPAVP | not soluble
6 | MGHHHHHHSHMREPWLFGEEHTRLIREAIRERYGLLPYWYSLFYHAHVASQPVMRPLWVEFPDELKTFDMEDEYMLGSALLVHPVTEPKATTVDVFLPGSNEVWYDYKTFAHWEGGCTVKIPVALDTIPVFQRGGSVIPIKTTV | soluble
7 | MESVSCSAAAVRTGDMESQRDLSLVPERLQRREQERQLEVERRKQKRQNQEVEKENSHFFVATFARERAAVEELLERAESVERLEEAASRLQGLQKLINDSVFFLAAYDLRQGQEALARLQAALAERRRGLQPKKRFAFKTRGKDAASSTKVDAAPGIPPAVESIQDSPLPKKAEGDLGPSWVCGFSNLESQVLEKRASELHQRDVLLTELSNCTVRLYGNPNTLRLTKAHSCKLLCGPVSTSVFLEDCSDCVLAVACQQLRIHSTKDTRIFLQVTSRAIVEDCSGIQFAPYTWSYPEIDKDFESSGLDRSKNNWNDVDDFNWLARDMASPNWSILPEEERNIQWD | soluble
8 | MTEKTTVKTLKDVVVRFCGDSGDGMQLTGTIFSDLSAVFGNTISTFPDYPAEIRAPQGTLGGVSGFQVHIGTDLVRTPGDLADVLVAMNPAALKVNRTHVRRDSIIIIDSDSFMASDLEKAEIASEDFMTELGLTTQELFTVPISSMVKKSTAEFGLDVKAALRCKNMFALGLVCWLFDRPTQHAIDYLNRKFGKKEAILNANIKALADGFNYGHNTHATATTYRIEGRKQTPGVYMDISGNKATAYGLVAAAEHANLNLFLGSYPITPATDILHELAKLKSLGVKTVQAEDEIAGICTAIGVSFAGDLAVTTTSGPGLALKSEALGLTVMAELPLVLVDVQRGGPSTGLPTKSEQTDLLQALFGRNGESPIPVIAATTPSDCFDSAFWACKIALEHMTPVILLTDAFIANGSSAWRIPDPQSYPDIRPPYVDQYKGEAKWRPYFRNEETHVRYWAIPGQEGFQHRLGGLEKDYVTGAISTNPENHAKMVATREAKVQAIAQDIPDLEVHGDKDDAELLIIGWGGTYGHLYETMERMRNAGKKVALAHFRFINPLPKNTAEVLQRYPKAVVAEQNLGQFALYLRGEVPGFHPLQFNRVTGQPLVMSEMVEVFTQMMEEK | not soluble
9 | KVGILQFVTHDALDQIEKGIEDGLKEAGYKGDKVQITLLNAEGDQSKIQTMSKQLVNDKNDVVIGIATPAAQGLAAATKDIPVIMGAISDPVGAKLVKNLKHPEGNVTGTSNQVPIKQTVELVKSLTPNAKTIGILYASSEDNSQSQVESFKKYAEQDGLNVIEYAVPSTNEINTTMSVMTGKVDAIWTPQDNTIASSFSTVISLANQAKIPVYTTVDTMVKEGGLASVAQNQYELGKATARSAIKVLKGKKVKDIPVDVIDDGTPTLNLKVARDLNITIPDDVLKQSDIAVKADK | not soluble
10 | MSLQYIVVTGGVISGLGKGTITSSIGHILKDSGFKVSSVKIDPYINYDAGTMNPYQHGEVFVLDDGSEVDLDLGNYERFMDINLSWKNNITTGKVYLEVIEKERHGDYLGKTVQIIPHITDEIKRRIRDVATSSKADFVLIEVGGTVGDIESMPFLEAVRQLKREENNVIFAHVTLVPEIGPTEEQKTKPTQHSVTALREIGIQPDIIFARSKNRLLEETKKRISLFTDVPEGGIISVYDVENVYLLPEVMVNEGFISYLSKLSGKEIKYRDSWKAYTENIKHPKDRVKIAIVGKYVDLHDAYISHKEAFSHVTGNTGIAVDIKWLDSEKVKDDQSMLSDVDAILIPGGFGYRGVEGKIAATRFALENHIPFLGICLGFQVAVIEIARDIIGLQNANSTEFDPATKYPVIDILPEQKGIKDLGGTMRLGSKKVLIKDGTLAKRIYGTDTIYERHRHRYEVNPNYISIIEKAGFVFSGTDEDGIRMEILEKKGDESFIATQYHSEFKSRPLNPSRVHLHLVQQALIYKKNKDIGEAVKLRSSVEGHHHHHH | soluble
11 | MIKIYNRKTKAYDVEQVAGLKYINWSYASPIGKSFLELFIKKKMFSKLYGNFCDSSLSKKKIKAFIDEFNIDMSLCNKNIDEFENFNDFFARTLTPEARPIDYSENILISPGDGRLSAFENIDLDKVVQIKGYTYSLKELIDDPKVAEEFEGGTCLILRLCPTDYHRFHFVDSGTCSESKKISGFYYSVNPIALNNVSELFCKNKREWSIFNSDNFGEILHVEVGATCVGTILQTYSPEKRVKKGEEKGYFKFGGSTTILFFKKDTIKIDSDIVEQTKLGFETKVNMGETIGHKLEHHHHHH | soluble
12 | GPGSMSRYSTGIENIPSLFDLASALTGFIADFTQVVFGNTQTSFTAAALEETDRGNYDPVARSWEGTGGLNYRVPLYPIPSERHTRERTRNIKILMDNCRRICVEDELPSTKEELQFWTAYRFMKYQMYLTPTCVIMPPLYVMWRMFHDRIPRPFRGRTIPVTLSLALAEQWADATYPGHQFLSTALRAKTPMGDAARAEWLRLQPIDIPYYIYAAYQFQHFFGNVPKEILFGGDIAGYCS | not soluble
13 | MKSARKNKNIIIDQNEFGILSLIKEGLLGTCTHLMNEKEVNEIIKSGKFKGESFPYPLSFAPKNAEEALNDIKSGDRIDLMLDEKVVGHIDFKSQFKNNKNFSDIFSPNTCSLEDMGTTCISGKIEIYNSQIEKIKENFQQIKNNLNAQKITAIVSSFDPLHRAHERMFRWTIDKADLVVIFLVESFDVNGFEFELKEAYLKKFIQNYLPPDRIFIFPLKNINIFHAHLNPGLESIIAKSLGCTKLVVGQNHTGLGMFYDDNQPKTILDDFSKDYGIEVIVLPEFVFCDQCRMIVSTRSCPHGCHHHLHYNSQSLKDLLRAGIIPPAIFIRKEVSSVILTSLFPNRLKNMQKIYNELFPTDGILEYKNDEEFYQKLLEIHQMSYMV | not soluble
14 | MSLSSTSHERLEVEPIDESSILFADDDHYTSDTVCLVTGGGSGIGRATALAMAANGVTAVATDIDADGLAEVADTAADLDLDGAVETVAGDLANDADIEAIVETAASHGTVRYLANIAGLQHIDAIEDFPMEKYDQMHDVMLRAPLALSKRVIPHIRGTDDGVGAIGNMASVHGHYVTSDKVAYNVSKFGLRGLTQSIAAEGGDGLRGFSISTGYVKTPLVVDQIPDTAEQRGISVDEVIDDVMLGQARIKEMMDPIDVANLFVFGFSRHANHLNGGDLLFDGGMTKTYEGHHHHHH | not soluble
15 | MLVKDFMTRNPITIAPETSFSEALKLMKQNKIKRLIVMKNEKIVGIVTEKDLLYASPSKATTLNIWELHYLLSKLKIEEIMTKDVVTVNENTPIEDAARIMEEKDISGLPVVDDAGRLVGIITQTDIFKVFVEIFGTKREGTIRYTMEMPDKPGELLEVAKRIYEAGGNIISIATLFEEGKDSYLATLRVENIDHEKFVKSLDEIDVKLLYYHSN | soluble
16 | MKLTTLGSWGAYPYQDAGTTSYLVTGHDGFQLLMDAGSRALNELEKEISPLDLDAVIISHYHPDHVADLGVLRHYFQLYPKHLWQPKVLPIYGHDEDRNEFAKLSIPDVSEGRAYDVTGVEQIGSFDITFLKTVHPVVCYAFRIVERATGQVLVFTGDSGYFEGLADFAKEADLFLADVYLYEGNENHMAHLTSKEAGLMASQAGVKKLVLTHMPPVPPDGINSKNHLEVLRQETQAYAGNIPVDLALPHKSWNLGSLS | not soluble
17 | GPGSMLSERACLHPGRALKCERFLAIFPQNVKEMLLQNPLFVQNSRVAERSIIRHNQFLLACYMTYLILRNDENAEGQALKYINFMPRNEGNFEQLISNMNGVLDGAAACQSAQAALSLQFGITQAEVRPLLQWSMAMIFSRMAPIDHRWTLQCAFKNTPFAPAFDIRGPDDDANMVKEPIAFLCPVIDMCNHSDHENVALMVPQRTDSSHESVICLRSLRDIDRGEELTMTYGGSPTELRVIWGMQRVL | not soluble
18 | MGSDKIHHHHHHMGCEIDRDASGLHSLQGLAGRDVSVAAGAKVGWSFMGTGTIATELVVEAIRSVGHSPLWVVSRSKRDADHFAEDLGIPHSTTELGPVLQDPSVGFAYISASLKRRPHYITAAAGAGKHILCDGPISCTSKTASALVELCRGARASLVVNQRLRASTIHQTMRRLVRDGDIGAVQSIVLIRGGPYQAPPNRSARDFNDGSGIYLDVSVENIDLARFLTGAEPVEATALITSEKMVPSQATYILRLSDGSLFQAHESFRTADIESMVLVAGDRGALIAQGTLNGRTSGTLMRRADGRNEAVPVRDHDVHLATVREFANTRGQTPSWLSQGTDSVIALRTVEAVAMSAKKRRTVPIQG | not soluble
19 | MANSLRNVNDYDPFKYRPSYFDLEAPTESFALGKFVDAIEVKQMALDAFSESSMVSIATSQLPKTAYTATSFIESEYYSFPYLFNDQKYYWDYFDYKIPAADFAVLELELDLNNQQDQQIKDHFIDPAIKAYKQLGDSTGLFATKPLTEYQNDTHYLLGYPVVPTDHTQLWECKQGAERFSYGYFYSNMARLTKNLRQGDPNAGSKTHIEYSNELLDKDSMDQGIVR | not soluble
20 | MTADLPDEIDETPLDGEYAHDSSPTLLYAIKQVELAIRSHMDALLRPMGITALQYTALTVLRRRDGLSSAELARNSFVTAQTMGEMLSALERRGLVTRRVDPANRRRMLTSLTADALDLLAEYDTSICGLEEQMLADMSVRQRDAFRGYLGRCRIALAETPAH | not soluble
21 | MGEIADSLAGLTISVVSPDNQLAATVRRRREVTVHFRPGSYERYDARTLETQLSQLFTLVMSGYRQGYMSVMEAHDMTVMADASDVDTEAGRIVRRRRDETVALGESAQGMVRAKTRGLSEWRFKIADGALSRLSEEQFTAEIHGAFMNVMADWSRRVRRIHWEVFSPDRVPAAGR | not soluble
